{"source": "the DeepSol protein solubility set", "experiment": "soluble on expression in E. coli; label from the status in PepcDB or PDB records"}
{"sequence": "MNCGPPPTLSFAAPMDITLTETRFKTGTTLKYTCLPGYVRSHSTQTLTCNSDGEWVYNTFCIYKRCRHPGELRNGQVEIKTDLSFGSQIEFSCSEGFFLIGSTTSRCEVQDRGVGWSHPLPQCEILEHHHHHH", "values": [{"measurement": "soluble on expression in E. coli", "value": "soluble"}]}
{"sequence": "MGSDKIHHHHHHMITDENKKLAQWAMDYALKNGCQAAKVLLYSSSNTSFELRDAKMDRLQQASEGGLSLSLYVDGRYGSISTNRLNRKELETFIKNGIDSTRYLAKDEARVLADPSRYYKGGKPDLKLYDAKFASLNPDDKIEMAKAVAEEALGKDERIISVGSSYGDGEDFAYRLISNGFEGETKSTWYSLSADITIRGEGEARPSAYWYESSLYMNDLIKKGIGQKALERVLRKLGQKKVQSGKYTMVVDPMNSSRLLSPMISALNGSALQQKNSFLLNKLNEKIASDRLTLTDEPHLVKASGARYFDNEGIATERRSIFDKGVLNTYFIDTYNAKKMGVDPTISGSSILVMETGDKNLDGLIAGVEKGILVTGFNGGNNNSSTGDFSYGIEGFLIENGKLTQPVSEMNVTGNLITLWNSLVATGNDPRLNSSWRIPSLVFEGVDFSGL", "values": [{"measurement": "soluble on expression in E. coli", "value": "soluble"}]}
{"sequence": "MTQQKLELTWFNKDQALIPQERGRYGYAWVDPHDPRYCQTHYLIEGETITGEQAPKQDGTQYGERADLEPTTDNLLINGESGDVLEALTRVPELADKYVGKVKCIYIDPPFNTAQTFANYEDNLEHSVWLTMMRDRLLHMKKLLSEDGSIWVHLDDVENHRMRLLMDEVFGAGNFVAEVVWEKTYSPRNDSKGIPAVTDTILVYRKSDQFSPNRLPRTAEMNARYKNPDHDRNGPWKSGDTTAPGNMSGKVQHPSVFAIQHPVTGQFIYPTYGRMWCFGQERILSSLSRYAPYRLAEPDMKSRSKRTGIPEEQLRADVFDLVVDETARQGDKTQAFRNISLGNWPEFFITDKGFGRKVPMSKSDGRVAPNLLRWEEVGHTDGAKKEITALFPNQAA", "values": [{"measurement": "soluble on expression in E. coli", "value": "not soluble"}]}
{"sequence": "MGKDLRGKELGVGLYQRKDKRYSARYTNQYGKRMEFYDFKLSVVKKWLNDARYEDEHGLSGTGEKVTVTEWFEKWIKLYKEGVVKDNTVKNYKSRFENNIKPAIGNLQLNKVKKIQLQTILNNMYEEGYAFGTMVLAQITIHALFDGAVQSEILAKNPANGLKCKQRDVKDSRVLTREEQKVFLEYSRGTMYYNAYALLLQTGLRPGEVGGLKWEDIDFDKRELHITRTLLQDKAKGGFYFGSPKNKKSIRTVPLTDTAIQLLKDQRICNFKLRQRSDNWQKNKEFDNLIFCTINGNPVGQSTFRMMMLRVITRINNDRRAEAEINNTTYVEFEPAHPHTLRHTFATRCIEDGMKPNVLQKILGHASITVTMDLYVHETHEEKHKEIRKLGNVEEIGVKLA", "values": [{"measurement": "soluble on expression in E. coli", "value": "not soluble"}]}
{"sequence": "MSLTQSHHDHVEKQFSSQASEYLTSTVHASGRDLQRLAVRLADYPDASVLDMGCGAGHASFVAAQNVSTVVAYDLSAHMLDVVAQAAEARQLKNITTRQGYVESLPFADNAFDIVISRYSAHHWHDVGAALREVNRILKLGGKLIVMDVMSPGHPVRDIWLQTVEALRDISHTRNYASGEWLTLISEANLIVDNLITDKLPLEFSSWVARMRTPEALVDAIRIYQQSASTEVKTYFALQNEGHHHHHH", "values": [{"measurement": "soluble on expression in E. coli", "value": "not soluble"}]}
{"sequence": "MGELTDALLGKGALKTRFGSLLGQGDWGGVRVSQVEVRWVIFCLLHWLHVNLPVTEYLALDVLFPLAIVQKHSIL", "values": [{"measurement": "soluble on expression in E. coli", "value": "not soluble"}]}
{"sequence": "MGSDKIHHHHHHMRLYESLLEMCLNKAWEHQTLALENPSVACMVLDKNHEILSLETHKKAKTPHAEVLAAQSALKILRPSLKNDLEKLEDPKTLSDFLKTHHDNAFTDCVFLITLEPCNSYGKTPACSELLEILKPKRVVIATEENEAKKGGLARLQKARIETIICHNLENKAKDLLLPFRVMEQKGRFNLFKLALRMNGDYHHGKITGQKSVIFTHNQRAICDTLIVSGKTIRTDNPLLDARFCDSFYQNKNPNIAILSKRSIDPNSKVFSAPNRLVNTFHDPKDLPLEKGFNFIEGGWELFESLRDKIDALLLHSHASMIGEAFKALALKTPFKGRLLHAQILENEALLWIENS", "values": [{"measurement": "soluble on expression in E. coli", "value": "not soluble"}]}
{"sequence": "MGSDKIHHHHHHAQFKKFNLGKAIQAGKDAAQAISLSDADIAAMSKEYMEWMDKHNPLTKPDSEYGKRLERLTGNIKEVDGMKVNFGVYEVVDVNAFACGDGSVRICAGLMDVMTDEEVMAVIGHEIGHVIHTDSKDAMKNAYFRSAVKNAAGAASSQVAKLTDSELGAMAEALAGAQYSQKQEYEADAYGVEFCVKNNIDPYGMYKSLNKLLELSNGAPASSYMQRMFSSHPDTAKRVARAKELADKYKQ", "values": [{"measurement": "soluble on expression in E. coli", "value": "not soluble"}]}
{"sequence": "ASHMQRIAVTAEGPGLDGLVDPRFGRAAGFVVVDAATMAAEYVDNGASQTLSHGAGINAAQVLAKSGAGVLLTGYVGPKAFQALQAAGIKVGQDLEGLTVRQAVQRFLDGQVPMAAGPNK", "values": [{"measurement": "soluble on expression in E. coli", "value": "soluble"}]}
{"sequence": "KKLCGYLSKFGGKGPIRGWKSRWFFYDERKCQLYYSRTAQDANPLDSIDLSSAVFDCKADAEEGIFEIKTPSRVITLKAATKQAMLYWLQQLQMKRWEFHNSPPAP", "values": [{"measurement": "soluble on expression in E. coli", "value": "soluble"}]}
{"sequence": "MHHHHHHGSACFAKGTNVLMADGSIECIENIEVGNKVMGKDGRPREVIKLPRGSETMYSVVQKSQHRAHKSDSSREMPELLKFTCNATHELVVRTPRSVRRLSRTIKGVEYFEVITFEMGQKKAPDGRIVELVKEVSKSYPVSEGPERANELVESYRKASNKAYFEWTIEARDLSLLGSHVRKATYQTYAPIGAAFARECRGFYFELQELKEDDYYGITLSDDSDHQFLLANQVVVH", "values": [{"measurement": "soluble on expression in E. coli", "value": "soluble"}]}
{"sequence": "MFPMNYSLIDLSAIECPESDLFIEGVVLAANLATRPLDPEQWLPELFTEQHQALLQPVTEQIHRQYQLLKGNGYDLLALLAEHAPSRKQGLADFAEGFMQLWPQVEPMWQQGAFADGSIRMLQALLTTLMLAIDEAQTQAQMREAGYEQVPALADLIEQLNLMVHEVALAADEAMLGAKAQSVNPFKGIGRNDACPCDSGKKFKQCCGQ", "values": [{"measurement": "soluble on expression in E. coli", "value": "not soluble"}]}
{"sequence": "MAHHHHHHMTILHNPGLPRVLNRITPQRLELTLMLIKERKKKLRYLGSYLQHYNDRTFLYNAMGGLNGTKFIIERHHHRAQYCHPTLHNERYSVRTIKMKGAQFDQVGNFTRNTWDCSVATTNLFQDATFRRHLSAIHKDEAIALLEGWGVKYVLLDEVRKPSVQDSIYVRHNLYIHKFPHIPDPVTNVYHGDADWKWKGDEKIDYTSYGASTKDERNTFQSLWSAAVRESKDSGVAKTVQAGKKL", "values": [{"measurement": "soluble on expression in E. coli", "value": "not soluble"}]}
{"sequence": "MGSDKIHHHHHHMKISFPHMGYSYIAFKWLVNHLGHECIVPPEPSKKTLDLGVRYSPEFACIPFKILMGTYLEVAEKGAEIILTSGGMGPCRAGYYWVMHQYILDEIGKKVKVIAFEPPLCDLRDFWRKLHRLRVSGGLSVKAFIQVLKVAWEKIKAIDDMEMQSHSIRPYEEKRGDTTRALWKALEFVDEANGEDEVNEARQEGLKVLQGVRRDENRDPLKIGIIGEIYVVLEPSANHYLQIMLGEMGVYTDRSIYLSSYTRKNTIVNLEGDIFQVARPYLNEAPIGGHGVNSIGETILYARHGFDGVVQLAPFACIPEIVAKSIIPAVSRDFNIPVLTLFIDEQTGKAGVQTRLEAFVDLLEKRREHKRQRERWAI", "values": [{"measurement": "soluble on expression in E. coli", "value": "not soluble"}]}
{"sequence": "MGSDKIHHHHHHVKEVKPKEDRVVLTKDQEKSLQIFCEWLEAPYSFKPFVMKGFAGSGKTYLSMKLLKKVDQLGLCWTVVAPTHKAVGVLREGLKNESIQPTWFPSTIHRLLRLKLKRQADIEICEKTDQTESSLENLGLVLIDEASMIDSKLLEITLECARCNSTRLVFVGDPAQLPPVGESTSSVFLMKRAVNTELREVVRHQGPVLKLAKVIRDGQIPCMQPPLVKVINSKKGNVGILDRTSWLERAKLALRLSSLEDDHDRARILCYTNRIVDNLVPHARRAIHGEMADQYQVLPGEVLISRKAVMVNASLNVDELGEEPDILISSNREMVVEDVIPNSFDLASLGIHQDFENPLPVIETQVAKVNCDQKEFSLRLMPQIGSKARKDLDLSLNELSNLARERGRKNSASTWKLFFFIRDSFASLGPASVLTIHRSQGSTFGEVFITSDAFWPKDLEFRRRLVYVAVSRASKGVWIVGDNKSKMNQALLEKLLMD", "values": [{"measurement": "soluble on expression in E. coli", "value": "not soluble"}]}
{"sequence": "MGSDKIHHHHHHAVVPGKKDFINENTPGSKVVQTPEGAWFKDDKNRQEWSITSEDGLRLKAIYLPADKKSNRTVIMAHGYMGSAETMSVFAKMYHDWGYNVLAPDARGHGKSQGDYIGFGWPDRKDYVQWIEKVLTENGQQEQITLYGVSMGAATVMMTSGEKLPDNVKAIVEDCGYSTVNQELQYQLKELFNLPSFPLVNVTSGITKLRAGYFFGEASAVKQLQKNHLPMLFIHGENDTFVPFSMLDEVYNATQGPKEKYVVPGAEHAKAYNKNPEKYKETVAAFLDKYIK", "values": [{"measurement": "soluble on expression in E. coli", "value": "not soluble"}]}
{"sequence": "TKAVTFYEDINYGGASVSLQPGNYTLSQLNTAKIPNDWMTSLKVPSGWTVDVYENDNFTGTKWTYTSDTPWVGNDANDKMTSVKIYST", "values": [{"measurement": "soluble on expression in E. coli", "value": "soluble"}]}
{"sequence": "RHYPEVKKLVLLSTAVNAMEWPQIIENSKQVITEAKEVTLKNSPMFKRYQKKVTETPWTSTLQFKKMVALAKPVFEHIEIPTFIAQGSADPIVPAEKSVNFLMESIPGPKELFILEGSKHVICQDEQADKLFAAVLTFLQK", "values": [{"measurement": "soluble on expression in E. coli", "value": "not soluble"}]}
{"sequence": "MSLDKNLQTVIHDEHCGTLDFSLGDSRYSGELESGESYTVNFSVNPPEGSSIKVARAYIYWTWSKQGLDGIYPEFKSSLVHSGSSVLLLEEKRYTDTKGFVSRYDFFSGTDVYDLSEDISEAGNYSISLVNAGGDEKTFCVQGAGLLLVYENPDLPQTEYWINEGCDVLYAEYGIDPDMATTTTFFEGDICPENIENARLITVSPSGGYSSGTEARNRLFFNEKTGSIPVIGDIIKLLFAGGKSWKNVYQTNETVQIALDERSVGNYLDSNGNFASIQDNGDYLMATNAILLLEFKEPENPGKRYGEGHHHHHH", "values": [{"measurement": "soluble on expression in E. coli", "value": "not soluble"}]}
{"sequence": "MKHTLPDLPFDYADLEPVISHEIMQLHHQKHHATYVNNLNQIEEKLHEAVSKGNLKEAIALQPALKFNGGGHINHSIFWTNLAKDGGEPSKELMDTIKRDFGSLDNLQKRLSDITIAVQGSGWGWLGYCKKDKILKIATCANQDPLEGMVPLFGIDVWEHAYYLQYKNVRPDYVHAIWKIANWKNISERFANARQ", "values": [{"measurement": "soluble on expression in E. coli", "value": "soluble"}]}
{"sequence": "LRSSSQNSSDKPVAHVVANHQVEEQLEWLSQRANALLANGMDLKDNQLVVPADGLYLVYSQVLFKGQGCPDYVLLTHTVSRFAISYQEKVNLLSAVKSPCPKDTPEGAELKPWYEPIYLGGVFQLEKGDQLSAEVNLPKYLDFAESGQVYFGVIAL", "values": [{"measurement": "soluble on expression in E. coli", "value": "soluble"}]}
{"sequence": "MSRVPRTFAGWTEQMSSSGKMYYYNKKTEISQWDKPAEWPAEGGSAERDKPKGGVNEKPRFAEDRYNEYIGQLSSSSSCFWRQIGIFSLSSSSKYYLCASRFLPLSHSLLQFLREIRRRL", "values": [{"measurement": "soluble on expression in E. coli", "value": "not soluble"}]}
{"sequence": "MGSDKIHHHHHHMIIDAHIHCSGDEKVDDVLQALDQAQVDKAVVLAPFLSGPYSMHDSASLRSANQYLSRLIGHHTDRLIGFAVINPSLEGACQDLVSAHELGLHGLKMVPAGWYPYDDCARDVYETAARLKIPILFHSGIFIDGKSGRFCRPSFYEAIRDYPDLRVTLAHLGWPWSDEANAVGLIDLINGVPPDNSQFRFDISFGAPPVYRLEVLRKAIDVLTPDLLQFGSDVFLPCSADLIKSRIDEVLMLLERLEVDKSSRDRIMGGTAAAWLGIN", "values": [{"measurement": "soluble on expression in E. coli", "value": "not soluble"}]}
{"sequence": "MLFVLILSHRAASYGAIMAALPYMQLYIADYLADTMHLSAEEHGAYLLLMFNYWQTGKPIPKNRLAKIARLTNERWADVEPSLQEFFCDNGEEWVHLRIEEDLASVREKLTKKSAAGKASVQARRSRKEADVQTKQERNLTGVQTDVEVVFEHDVNTKATNKDTDKDLKTDPPLNPPRGNRGVKKFDPLDITLPNWISVSLWREWVEFRQALRKPIRTEQGANGAIRELEKFRQQGFSPEQVIRHSIANEYQGLFAPKGVRPETLLRQVNTVSLPDSAIPPGFRG", "values": [{"measurement": "soluble on expression in E. coli", "value": "not soluble"}]}
